Source: US20140051084A1

Key:
Abeta1-42 [1] = experiment: intracellular flow cytometry of monocytes/macrophages from patient and control, isotype control stain (background level)
Abeta1-42 [2] = experiment: intracellular flow cytometry of THP-1 cells, isotype control stain (background level)

Sequence of Abeta1-42 (peptide, as listed by the source): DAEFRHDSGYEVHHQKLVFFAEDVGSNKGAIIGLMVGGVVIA

median Abeta FITC-A signal (Abeta1-42 [1]): 102 | median Abeta FITC-A signal (Abeta1-42 [2]): 102
Substance: isotype control antibodies (Mouse IgG1 and IgG2b) (antibody)
